In test [1] the target is TAG-72 antigen on a human breast carcinoma extract (human). The test can be described thus: competition ELISA, competitor biotin-CC49 IgG, human breast carcinoma extract. (In general: In an ELISA, binding on a coated surface is turned into a signal by an enzyme label.)
Test [2] shares this target. Description: competition RIA, competitor 125I-CC49 IgG, human breast carcinoma extract.

As to “CC49/4-4-20 heterodimer Fv (fraction 5) (bispecific antibody)”, the fold higher protein concentration needed to displace the IgG (against CC49/212 single-chain Fv) in test [1] was determined as 200 fold.

In test [2], “CC49/212 single-chain antigen-binding protein (monomer) (scFv)” registered a fold higher protein concentration needed to displace the IgG (against CC49 IgG and bivalent CC49/212) of 10 fold.

(Values after patent US6515110.)
